From publication PMC5707411

Key:
[1] = target: full-length RSV F (TM, residues 1–574) from strain 18537 with the DS-Cav1 prefusion-stabilizing mutations (respiratory syncytial virus subtype B, strain 18537) (UniProt P13843)
[2] = target: prefusion-stabilized RSV F strain A2 (DS-Cav1); test: SPR
[3] = target: RSV F (+) FdTHS based on strain A2 (wild-type A2 RSV F ectodomain fused to a C-terminal trimerization motif) (respiratory syncytial virus subtype A, strain A2) (UniProt Q4KRW9); test: crystal structure; 5C4 Fab co-expressed with RSV F (+) FdTHS in Expi293, complex purified (Ni-NTA, Strep-Tactin, thrombin, Superose 6); crystal from 0.2 M ammonium acetate, 0.1 M Bis-Tris pH 6.5, 25% PEG 3350; 3.4 Å
5C4 IgG [4] = test: flow cytometry on cells; conditions: full-length pre-F variants expressed in Expi293 cells; parent: est. 0.04; read off a plot
D25 IgG [5] = test: flow cytometry on cells; conditions: full-length pre-F variants expressed in Expi293 cells; parent: est. 0.14; read off a plot
5C4 IgG [6] = test: flow cytometry on cells; conditions: full-length pre-F variants expressed in Expi293 cells, read off a plot
D25 IgG [7] = test: flow cytometry on cells; conditions: full-length pre-F variants expressed in Expi293 cells, read off a plot

Substance | other: Relative binding (fractional binding relative to motavizumab) (5C4 IgG [4]) | other: Relative binding (fractional binding relative to motavizumab) (D25 IgG [5]) | other: Relative binding (fractional binding relative to motavizumab) (5C4 IgG [6]; parent: est. 0.75) | other: Relative binding (fractional binding relative to motavizumab) (D25 IgG [7]; parent: est. 0.69) | further results
5C4 IgG (antibody) |  |  |  |  | EC50 of 5C4 neutralisation of mKate-RSV B strain 18537 wild-type virus on HEp-2 cells (viral F without DS-Cav1; antibody format not given) [1]: 9.15 µg/mL
D25 Fab |  |  |  |  | Kd [2]: < 0.0769 nM; koff [2]: < 1e-05 s⁻¹
RSV F (+) FdTHS based on strain A2 (wild-type A2 RSV F ectodomain fused to a C-terminal trimerization motif) (from UniProt Q4KRW9 1-391) (complex) |  |  |  |  | stoichiometry N [3]: 3
full-length RSV F (TM, residues 1–574) from strain 18537 with the DS-Cav1 prefusion-stabilizing mutations (from UniProt P13843) N200D | 0.01 | 0.33 |  |  | 
full-length RSV F (TM, residues 1–574) from strain 18537 with the DS-Cav1 prefusion-stabilizing mutations (from UniProt P13843) N201A |  |  |  |  | other: Relative binding (fractional binding relative to motavizumab) (5C4 IgG [6]; parent: est. 0.005): 0.01; other: Relative binding (fractional binding relative to motavizumab) (D25 IgG [7]; parent: est. 0.14): 0.003
full-length RSV F (TM, residues 1–574) from strain 18537 with the DS-Cav1 prefusion-stabilizing mutations (from UniProt P13843) N201K | 0.52 | 0.35 |  |  | other: Relative binding (fractional binding relative to motavizumab) (5C4 IgG [6]; parent: est. 0.005): 0.44; other: Relative binding (fractional binding relative to motavizumab) (D25 IgG [7]; parent: est. 0.14): 0.35
full-length RSV F (TM, residues 1–574) from strain 18537 with the DS-Cav1 prefusion-stabilizing mutations (from UniProt P13843) N201R |  |  |  |  | other: Relative binding (fractional binding relative to motavizumab) (5C4 IgG [6]; parent: est. 0.005): 0.4; other: Relative binding (fractional binding relative to motavizumab) (D25 IgG [7]; parent: est. 0.14): 0.01
full-length RSV F (TM, residues 1–574) from strain 18537 with the DS-Cav1 prefusion-stabilizing mutations (from UniProt P13843) Q209K | 0.19 | 0.58 |  |  | 
full-length RSV F (TM, residues 1–574) from strain 18537 with the DS-Cav1 prefusion-stabilizing mutations (from UniProt P13843) R202Q | 0.01 | 0.37 |  |  | 
full-length RSV F (TM, residues 1–574) from strain 18537 with the DS-Cav1 prefusion-stabilizing mutations (from UniProt P13843) R213S | 0.01 | 0.05 |  |  | 
full-length RSV F (TM, residues 1–574) from strain 18537 with the DS-Cav1 prefusion-stabilizing mutations (from UniProt P13843) T67N | 0.15 | 0.53 |  |  | 
full-length RSV F (TM, residues 1–574) from strain 18537 with the DS-Cav1 prefusion-stabilizing mutations (from UniProt P13843) T74A | 0.01 | 0.13 |  |  | 
full-length RSV F (TM, residues 1–574) from strain A2 with the DS-Cav1 prefusion-stabilizing mutations A74T |  |  | 0.7 | 0.68 | 
full-length RSV F (TM, residues 1–574) from strain A2 with the DS-Cav1 prefusion-stabilizing mutations D200N |  |  | 0.74 | 0.67 | 
full-length RSV F (TM, residues 1–574) from strain A2 with the DS-Cav1 prefusion-stabilizing mutations K201A |  |  |  |  | other: Relative binding (fractional binding relative to motavizumab) (5C4 IgG [6]; parent: est. 0.60): 0.02; other: Relative binding (fractional binding relative to motavizumab) (D25 IgG [7]; parent: est. 0.63): 0.64
full-length RSV F (TM, residues 1–574) from strain A2 with the DS-Cav1 prefusion-stabilizing mutations K201N |  |  | 0.01 | 0.67 | other: Relative binding (fractional binding relative to motavizumab) (5C4 IgG [6]; parent: est. 0.60): 0.012; other: Relative binding (fractional binding relative to motavizumab) (D25 IgG [7]; parent: est. 0.63): 0.64
full-length RSV F (TM, residues 1–574) from strain A2 with the DS-Cav1 prefusion-stabilizing mutations K201R |  |  |  |  | other: Relative binding (fractional binding relative to motavizumab) (5C4 IgG [6]; parent: est. 0.60): 0.61; other: Relative binding (fractional binding relative to motavizumab) (D25 IgG [7]; parent: est. 0.63): 0.64
full-length RSV F (TM, residues 1–574) from strain A2 with the DS-Cav1 prefusion-stabilizing mutations K209Q |  |  | 0.61 | 0.54 | 
full-length RSV F (TM, residues 1–574) from strain A2 with the DS-Cav1 prefusion-stabilizing mutations N67T |  |  | 0.6 | 0.61 | 
full-length RSV F (TM, residues 1–574) from strain A2 with the DS-Cav1 prefusion-stabilizing mutations Q202R |  |  | 0.73 | 0.63 | 
full-length RSV F (TM, residues 1–574) from strain A2 with the DS-Cav1 prefusion-stabilizing mutations S213R |  |  | 0.7 | 0.65 | 
